Results: IntAct's records for PubMed 27462807

Key:
tp53b_human TP53BP1 [1] = target: tp53b_human TP53BP1 (UniProt Q12888)
tp53b_human TP53BP1 [2] = target: tp53b_human TP53BP1 (UniProt Q12888); remark: listed apart in the source

tp53b_human TP53BP1, sequence (Q12888 whole entry): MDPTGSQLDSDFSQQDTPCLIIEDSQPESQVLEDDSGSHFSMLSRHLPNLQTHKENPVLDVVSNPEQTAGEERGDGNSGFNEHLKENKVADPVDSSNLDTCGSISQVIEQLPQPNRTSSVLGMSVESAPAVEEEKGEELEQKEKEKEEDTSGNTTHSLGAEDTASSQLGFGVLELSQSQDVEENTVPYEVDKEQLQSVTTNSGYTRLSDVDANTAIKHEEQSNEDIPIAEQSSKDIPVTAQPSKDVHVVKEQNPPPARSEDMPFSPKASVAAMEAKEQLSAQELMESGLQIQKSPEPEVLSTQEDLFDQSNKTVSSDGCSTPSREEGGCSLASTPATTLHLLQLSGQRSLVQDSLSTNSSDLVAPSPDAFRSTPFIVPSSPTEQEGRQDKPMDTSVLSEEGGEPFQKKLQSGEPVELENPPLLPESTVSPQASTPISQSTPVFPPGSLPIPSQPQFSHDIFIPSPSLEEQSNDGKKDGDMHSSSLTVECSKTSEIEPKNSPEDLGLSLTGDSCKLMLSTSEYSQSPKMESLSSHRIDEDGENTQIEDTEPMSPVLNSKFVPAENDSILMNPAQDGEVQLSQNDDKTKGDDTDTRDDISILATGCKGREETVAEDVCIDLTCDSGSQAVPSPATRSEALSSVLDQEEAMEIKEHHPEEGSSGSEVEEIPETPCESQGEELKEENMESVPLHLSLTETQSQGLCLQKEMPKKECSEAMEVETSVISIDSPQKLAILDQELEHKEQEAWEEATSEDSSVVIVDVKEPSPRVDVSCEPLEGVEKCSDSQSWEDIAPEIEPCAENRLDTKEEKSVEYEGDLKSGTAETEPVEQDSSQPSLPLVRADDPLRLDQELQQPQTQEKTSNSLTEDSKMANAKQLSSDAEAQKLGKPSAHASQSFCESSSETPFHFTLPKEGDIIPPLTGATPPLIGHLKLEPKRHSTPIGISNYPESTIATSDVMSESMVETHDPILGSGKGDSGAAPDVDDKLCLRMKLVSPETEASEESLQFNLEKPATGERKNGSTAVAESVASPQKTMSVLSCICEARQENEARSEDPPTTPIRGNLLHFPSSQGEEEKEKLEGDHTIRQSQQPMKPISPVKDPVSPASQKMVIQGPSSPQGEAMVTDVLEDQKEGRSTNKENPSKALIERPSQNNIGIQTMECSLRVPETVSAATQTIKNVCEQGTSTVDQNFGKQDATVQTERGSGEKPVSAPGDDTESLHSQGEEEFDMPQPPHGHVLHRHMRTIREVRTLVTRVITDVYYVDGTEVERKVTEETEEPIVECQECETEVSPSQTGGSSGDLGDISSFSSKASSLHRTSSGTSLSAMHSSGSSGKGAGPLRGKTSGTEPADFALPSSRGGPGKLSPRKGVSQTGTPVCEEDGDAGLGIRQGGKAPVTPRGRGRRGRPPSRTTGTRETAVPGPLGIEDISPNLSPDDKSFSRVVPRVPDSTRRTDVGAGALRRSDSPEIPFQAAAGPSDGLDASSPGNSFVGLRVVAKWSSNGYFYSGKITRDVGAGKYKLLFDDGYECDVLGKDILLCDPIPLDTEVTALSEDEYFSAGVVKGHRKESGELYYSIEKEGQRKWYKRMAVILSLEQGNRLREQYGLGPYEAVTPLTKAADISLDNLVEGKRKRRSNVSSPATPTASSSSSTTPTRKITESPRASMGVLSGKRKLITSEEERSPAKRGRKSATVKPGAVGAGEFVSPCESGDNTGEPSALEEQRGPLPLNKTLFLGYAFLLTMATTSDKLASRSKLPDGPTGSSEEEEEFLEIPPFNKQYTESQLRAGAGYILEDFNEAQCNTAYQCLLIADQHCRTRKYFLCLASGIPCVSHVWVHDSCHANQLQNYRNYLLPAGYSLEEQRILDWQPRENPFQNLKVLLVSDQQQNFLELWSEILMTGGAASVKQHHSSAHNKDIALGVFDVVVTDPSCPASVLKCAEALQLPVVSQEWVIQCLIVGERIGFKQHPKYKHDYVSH

Row | effect of a mutation on the interaction (tp53b_human TP53BP1 [1]) | effect of a mutation on the interaction (tp53b_human TP53BP1 [2]) | Substance
1 | with no effect |  | Histone H2B type 1-C/E/F/G/I (Homo sapiens) (from UniProt P62807) E106C
2 |  | with no effect | Histone H2B type 1-C/E/F/G/I (Homo sapiens) (from UniProt P62807) N85C
